According to US20120058906A1 (published 2012):
Where a chain is given by its changes, count along the chain named.

Legend:
[1] = biological target: T1, rHuman HGF R/c-MET/Fc Chimera, CF (R&D Systems Cat#358-MT/CF) (human, UniProt P08581 25-932); assay: ECL (MSD multi-spot), antigen on plate, Fab 0.5 nM
T1 construct: Bought Fc chimera; also called HGF R/Fc; not shown: Fc of the bought chimera

[2] = biological target: T2, rHuman Erythropoietin R/Fc Chimera, CF (R&D Systems Cat#963-ER) (human, UniProt P19235 25-250); assay: ECL (MSD multi-spot), antigen on plate, Fab 0.5 nM
T2 construct: Bought Fc chimera; also called EPO R/Fc; Epo R; not shown: Fc of the bought chimera
T2 sequence: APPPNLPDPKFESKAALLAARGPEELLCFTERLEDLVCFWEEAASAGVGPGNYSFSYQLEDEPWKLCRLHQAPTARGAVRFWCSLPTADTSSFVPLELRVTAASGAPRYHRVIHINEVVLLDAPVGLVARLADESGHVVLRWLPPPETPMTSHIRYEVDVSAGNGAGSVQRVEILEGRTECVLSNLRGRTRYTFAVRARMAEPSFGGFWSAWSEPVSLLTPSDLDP

[3] = biological target: T3, rHuman ErbB2/Fc Chimera, CF (R&D Systems Cat#1129-ER) (human, UniProt P04626 23-652); assay: ECL (MSD multi-spot), antigen on plate, Fab 0.5 nM
T3 construct: Bought Fc chimera; also called HER2/neu; not shown: Fc of the bought chimera

[4] = biological target: T4, rHuman CD44/Fc Chimera, CF (R&D Systems Cat#3660-CD) (human, UniProt P16070 21-220); assay: ECL (MSD multi-spot), antigen on plate, Fab 0.5 nM
T4 construct: Bought Fc chimera; not shown: Fc of the bought chimera

[5] = biological target: T5, rHuman P-Cadherin/Fc Chimera, CF (R&D Systems Cat#861-PC) (human, UniProt P22223 108-654); assay: ECL (MSD multi-spot), antigen on plate, Fab 0.5 nM
T5 construct: Bought Fc chimera; also called CDH3; not shown: Fc of the bought chimera

[6] = biological target: T6, rHuman EGF R/Fc Chimera, CF (R&D Systems Cat#344-ER) (human, UniProt P00533 25-645); assay: ECL (MSD multi-spot), antigen on plate, Fab 0.5 nM
T6 construct: Bought Fc chimera; also called ErbB-1; not shown: Fc of the bought chimera

[7] = biological target: T7, Recombinant Human DLL4 (R&D Systems Cat#1506-D4/CF) (human, UniProt Q9NR61 27-524); assay: ECL (MSD multi-spot), antigen on plate, Fab 0.5 nM
T7 construct: Bought recombinant protein; also called delta-like protein 4

[8] = biological target: T8, rHuman IGF-1 sR (insulin-like growth factor-1 soluble receptor), CF (R&D Systems Cat#391-GR) (human, UniProt P08069 31-932); assay: ECL (MSD multi-spot), antigen on plate, Fab 0.5 nM
T8 construct: Bought soluble receptor; also called IGF-R1

[9] = biological target: T9, rHuman Notch-1/Fc Chimera, CF (R&D Systems Cat#3647-TK) (human, UniProt P46531 19-526); assay: ECL (MSD multi-spot), antigen on plate, Fab 0.5 nM
T9 construct: Bought Fc chimera; not shown: Fc of the bought chimera

[10] = biological target: T3, rHuman ErbB2/Fc Chimera, CF (R&D …); assay: ECL (MSD multi-spot), antigen on plate, Fab 0.4 nM;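 note: blank spot per well as comparator with Hit at signal to blank ratio of 4 or more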
[11] = biological target: T4, rHuman CD44/Fc Chimera, CF (R&D Systems …); assay: ECL (MSD multi-spot), antigen on plate, Fab 0.4 nM;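 note: blank spot per well as comparator with Hit at signal to blank ratio of 4 or more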
[12] = biological target: T5, rHuman P-Cadherin/Fc Chimera, CF (R&D …); assay: ECL (MSD multi-spot), antigen on plate, Fab 0.4 nM;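 note: blank spot per well as comparator with Hit at signal to blank ratio of 4 or more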
[13] = biological target: T7, Recombinant Human DLL4 (R&D Systems …); assay: ECL (MSD multi-spot), antigen on plate, Fab 0.4 nM;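 note: blank spot per well as comparator with Hit at signal to blank ratio of 4 or more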
[14] = biological target: T9, rHuman Notch-1/Fc Chimera, CF (R&D …); assay: ECL (MSD multi-spot), antigen on plate, Fab 0.4 nM;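 note: blank spot per well as comparator with Hit at signal to blank ratio of 4 or more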
[15] = biological target: T1, rHuman HGF R/c-MET/Fc Chimera, CF (R&D …); assay: ECL (MSD multi-spot), antigen on plate, Fab 2 nM;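 note: blank spot per well as comparator with Hit at signal to blank ratio of 4 or more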
[16] = biological target: T2, rHuman Erythropoietin R/Fc Chimera, CF …; assay: ECL (MSD multi-spot), antigen on plate, Fab 2 nM;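 note: blank spot per well as comparator with Hit at signal to blank ratio of 4 or more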
[17] = biological target: T4, rHuman CD44/Fc Chimera, CF (R&D Systems …); assay: ECL (MSD multi-spot), antigen on plate, Fab 2 nM;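 note: blank spot per well as comparator with Hit at signal to blank ratio of 4 or more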
[18] = biological target: T6, rHuman EGF R/Fc Chimera, CF (R&D …); assay: ECL (MSD multi-spot), antigen on plate, Fab 2 nM;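 note: blank spot per well as comparator with Hit at signal to blank ratio of 4 or more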
[19] = biological target: T7, Recombinant Human DLL4 (R&D Systems …); assay: ECL (MSD multi-spot), antigen on plate, Fab 2 nM;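 note: blank spot per well as comparator with Hit at signal to blank ratio of 4 or more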
[20] = biological target: T8, rHuman IGF-1 sR (insulin-like growth …); assay: ECL (MSD multi-spot), antigen on plate, Fab 2 nM;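 note: blank spot per well as comparator with Hit at signal to blank ratio of 4 or more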
[21] = biological target: T9, rHuman Notch-1/Fc Chimera, CF (R&D …); assay: ECL (MSD multi-spot), antigen on plate, Fab 2 nM

B1: Fab VH1-46_IGHD6-6*01_IGHJ1*01_S102A_S103P_S104Y_H111Y & L6_IGKJ1*01 (Fab, V domains shown)
VH: QVQLVQSGAEVKKPGASVKVSCKASGYTFTSYYMHWVRQAPGQGLEWMGIINPSGGSTSYAQKFQGRVTMTRDTSTSTVYMELSSLRSEDTAVYYCAREEYAPYSAEYFQYWGQGTLVTVSS
VL: not shown
notes: Fab made in E. coli; The heavy chain also carries CH1 with Flag and His tags from Plasmid A, and the light chain carries kappa CL from Plasmid C
B1 gave an ECL signal [1] of 1690 ECL signal, an ECL signal [2] of 1840 ECL signal and an ECL signal [3] of 1720 ECL signal. The ECL signal [4] was 1560 ECL signal, the ECL signal [5] was 2630 ECL signal and the ECL signal [6] was 1750 ECL signal. For the same binder, the ECL signal [7] was 5150 ECL signal, the ECL signal [8] was 1660 ECL signal and the ECL signal [9] was 1760 ECL signal.

B2: Fab VH1-46_IGHD6-6*01_IGHJ1*01_S102A_S103P_S104F & L6_IGKJ1*01_S28P (Fab, V domains shown)
VH: B1 VH with Y104F, Y111H
VL: EIVLTQSPATLSLSPGERATLSCRASQPVSSYLAWYQQKPGQAPRLLIYDASNRATGIPARFSGSGSGTDFTLTISSLEPEDFAVYYCQQRSNWPPWTFGQGTKVEIKR
notes: Fab
In the case of B2, the ECL signal [10] is reported as 275 ECL signal, the ECL signal [11] is reported as 257 ECL signal and the ECL signal [12] is reported as 191 ECL signal. It also gave an ECL signal [13] of 1140 ECL signal and an ECL signal [14] of 248 ECL signal.

B3: Fab VH1-46_IGHD6-6*01_IGHJ1*01_S102A_S103P_S104F & L6_IGKJ1*01_S30N (Fab, V domains shown)
VH: B1 VH with Y104F, Y111H
VL: B2 VL with P28S, S30N
notes: Fab
B3 gave an ECL signal [15] of 207 ECL signal, an ECL signal [16] of 294 ECL signal and an ECL signal [17] of 209 ECL signal. The ECL signal [18] was 171 ECL signal, the ECL signal [19] was 11400 ECL signal and the ECL signal [20] was 296 ECL signal. It also gave an ECL signal [21] of 274 ECL signal.
